Measured values published in patent US20160032001A1 (APEXIGEN, published 2016).
Read-outs that look alike come from different tables or passages of the source.

Columns and labels:
[1] = molecular target: T1, human RANKL protein (human, UniProt O14788 140-317, limits assumed); assay: surface plasmon resonance
T1 sequence (looked up): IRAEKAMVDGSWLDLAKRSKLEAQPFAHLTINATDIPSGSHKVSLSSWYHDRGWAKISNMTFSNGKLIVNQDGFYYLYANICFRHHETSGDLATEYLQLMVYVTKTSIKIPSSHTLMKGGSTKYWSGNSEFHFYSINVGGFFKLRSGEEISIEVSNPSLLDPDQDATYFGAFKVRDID

[2] = molecular target: T2, RANKL expressed on the surface of 293 cells (UniProt O14788 1-317, limits assumed); assay: flow cytometry (MFI) on RANKL-transfected 293 cells
T2 construct: whole, on cells; also called RANKL-transfected 293 cells; cells expressing RANKL
T2 sequence (looked up): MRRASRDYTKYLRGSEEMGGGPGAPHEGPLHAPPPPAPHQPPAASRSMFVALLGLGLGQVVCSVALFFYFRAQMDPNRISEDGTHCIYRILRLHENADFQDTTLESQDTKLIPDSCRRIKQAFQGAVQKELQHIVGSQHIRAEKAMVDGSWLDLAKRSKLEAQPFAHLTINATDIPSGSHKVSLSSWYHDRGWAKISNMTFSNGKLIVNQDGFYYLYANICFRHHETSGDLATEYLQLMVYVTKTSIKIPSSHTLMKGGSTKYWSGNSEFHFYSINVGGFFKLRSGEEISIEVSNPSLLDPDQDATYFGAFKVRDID

[3] = molecular target: T1, human RANKL protein; assay: competition ELISA: RANKL (0.5 ug/ml) pre-incubated with the antibody, then binding to coated human RANK (8 ug/ml) detected; blocked partner RANK
[4] = molecular target: T1, human RANKL protein; assay: cell-based or functional assay
[5] = molecular target: T1, human RANKL protein; assay: competition ELISA: RANKL (0.5 ug/ml) pre-incubated with the antibody, then binding to coated human RANK (8 ug/ml) detected; blocked partner RANK; remark: listed apart in the source
[6] = molecular target: T2, RANKL expressed on the surface of 293 …; assay: flow cytometry (MFI) on RANKL-transfected 293 cells; remark: listed apart in the source
[7] = molecular target: T1, human RANKL protein; assay: competition ELISA: RANKL (0.5 ug/ml) pre-incubated with the antibody, then binding to coated human RANK (8 ug/ml) detected; blocked partner RANK; remark: listed apart in the source
[8] = molecular target: T2, RANKL expressed on the surface of 293 …; assay: flow cytometry (MFI) on RANKL-transfected 293 cells; remark: listed apart in the source
[9] = molecular target: T2, RANKL expressed on the surface of 293 …; assay: as above; remark: listed apart in the source
[10] = molecular target: T1, human RANKL protein; assay: competition ELISA: RANKL (0.5 ug/ml) pre-incubated with the antibody, then binding to coated human RANK (8 ug/ml) detected; blocked partner RANK; remark: listed apart in the source

| Binder | IC50 [5] | EC50 [6] | IC50 [7] | EC50 [8] | other results |
| --- | --- | --- | --- | --- | --- |
| clone 327 rabbit anti-RANKL antibody (antibody, V domains shown) VH: QSLEESGGRLVTPGTPLTLTCTVSGFSLSKYEINWVRQAPGKGLEWIGYIDVGSGTWYASWAKGRFTISKTSTTVALRITSPTTEDTATYFCSRQYNPMDLWGPGTLVTVSS VL: DMTQTPASVEAAVGGTVTIKCQASQNIGSNLAWYQQKPGQRPKLLIYSASTLASGVPSRFKGSGSGTQFTLTISGVQCDDAATYYCQQGYSVGNVNNAFGGGTEVVVK |  |  |  |  | Kd [1]: 2.13 nM; koff [1]: 0.0003 s⁻¹; kon [1]: 141000 M⁻¹ s⁻¹; EC50 [2]: 0.0871 µg/mL; IC50 [3]: 0.0416 µg/mL; IC50 in a RAW cell assay (TRAP activity, OD 405 nM) [4]: 0.0075 µg/mL |
| clone EBI-51-23 rabbit anti-RANKL antibody (antibody, V domains shown) VH: QSVKESEGGLFKPTDTLTLTCTVSGFSLSIYEISWVRQAPGKELEWIGYIGVGGVTYYANWAKSRSTITRNTNQKMVALKMTSLTAADTATYFCARGYNPFDLWGPGTLVTVSS VL: DMTQTPASVEVAVGGTVTINCQASQNIGSNLAWYQQKPGQPPKLLIYKASTLASGVPSRLKGSGSGTEFTLTISGVQCDDAATYYCQQGYTTGNVDNPFGGGTEVVVK | 0.0482 µg/mL | 0.156 µg/mL |  |  |  |
| clone 415 rabbit anti-RANKL antibody (antibody, V domains shown) VH: QSVEESGGRLVTPGGSLTLTCTVSGFSLSNYEMNWVRQAPGKGLEWIGYIDVGSGTWYASWAKGRFTISKTSTTVDLKITSPTTEDTATYFCSRQYNPMDLWGPGTLVTVSS VL: DMTQTPASVEVAVGGTVTIKCQASQNIGSNLAWYQQKPGQRPKLLIYSASTLASGVPSRFKGSGSGTQFTLTISGVQCDDAATYYCQQGYSVGNVNNAFGGGTEVVVK |  |  | 0.0545 µg/mL | 0.16 µg/mL |  |
| clone 193 rabbit anti-RANKL antibody (antibody, V domains shown) VH: QSVEESGGRLVTPGTPLTLTCTFSGFSLSNNAINWVRQAPGKGLEWIGYTWSGGGTYCASWAKGRFTISKTSSTTVDLKMTSLTTEDTATYFCARAYDSEWDRLDLWGQGTLVTVSS VL: VMTQTPASVSGPVGGTVTIKCQASQSIGSNLGWYQQKPGQPPKLLIFSASNLESGVPSRFKGSGSGTQFTLTISDLECDDAATYYCQQGYTTNNVLNAFAGGTEVVVK |  |  |  |  | EC50 [9]: 0.135 µg/mL; IC50 [10]: 0.0665 µg/mL |
| clone EBI-51-11 rabbit anti-RANKL antibody (antibody, V domains shown) VH: QSVEESGGRLITPGTPLTLTCTVSGFSLSTDVVSWVRQAPGTGLEWIGYTWSGGSTYYAIWAKGRFTISKTSSTTVDLKITSPTTEDTATYFCARGFNPFDPWGPGTLVTVSS VL: DMTQTPASVSEPVGGTVTIKCQASQNIGSNLAWYQQKPGQRPKLLIYRASTLASGVSSRFKGSGSGTQFTLTISDLECADAATYYCQQGYSAGNVDKHVFGGGTEVVVK | 0.0656 µg/mL | 0.0757 µg/mL |  |  |  |
| clone EBI-51-2 rabbit anti-RANKL antibody (antibody, V domains shown) VH: QSLEESGGRLVTPGTPLTLTCTASGFTISTDVISWVRQAPGKGLEWIGYTWSGGSTYYANWAKGRFTLSKTSSTTVDLKITSPTIEDTATYFCARGFNPFDPWGPGTLVTVSS VL: DMIQTPASVSEPVGGTVTIVCQASQNIGSNFAWYQQKPGQPPKLLIYRASTLASGVSSRFKGSGFGTQFTLTISDLECADAATYYCQQGYSAGNVDNNFGGGTEVVVK | 0.0389 µg/mL | 0.0621 µg/mL |  |  |  |
| clone EBI-51-1 rabbit anti-RANKL antibody (antibody, V domains shown) VH: QEQLEESGGGLVKPEGSLTLTCTASGFDLSTYYYMCWVRQAPGKGLEWIACIYTGRASTYYATWAKGRFTISKTSSTTVTLQMTSLTAADTATFFCASKAGDIWYYGMDLWGPGTLVTVSS VL: DMTQTPASVSEPVGGTVTIKCQASQNIGSNLAWYQQKPGQRPKLLIYRASTLASGVSSRFKGSGSGTQFTLTISDLECADAATYYCQQGYSAGNVDNNTFGGGTEVVVK | 0.0753 µg/mL | 0.0867 µg/mL |  |  |  |
| clone 210 rabbit anti-RANKL antibody (antibody, V domains shown) VH: QSVKESGGGLVTPGGTLTLTCTASGFSLSNNAMSWVRQAPGKGLEWIGYIYPGGSPYYANWAKGRFTISRTSTTVDLKMTSLTTEDTATYFCARHVSDGGWYLYIWGPGTLVTVSL VL: DMIQTPASVEVAVGGTVTINCQASQSIGSNLAWYQQKPGQPPKLLIYGASTLASGVPSRFKGSGSGTQFTFTISDVECTAAATYYCQQAYSISNVDNAFGGGTEVVVK |  |  |  |  | EC50 [9]: 0.292 µg/mL; IC50 [10]: 0.071 µg/mL |
| clone 447 rabbit anti-RANKL antibody (antibody, V domains shown) VH: QEQLKESGGGLVTPGGILTLTCTASGFSLRSNAMSWVRQAPGKGLEWIGYIYPGGAPHYASWAKGRFTISRNSTTVDLKMTSLTTEDTATYFCARHVSGGGWYLDIWGPGTLVTVSL VL: DMIQTPASVEVGVGGTVTINCQASQNIGSNLAWYQQKPGQPPKFLIYGASTLASGVSSRFKGSGSGTRFTFTISDVECTDAATYYCQQAYSVGNVDNAFGGGTEVVVK |  |  | 0.0537 µg/mL | 0.0617 µg/mL |  |
| clone 174 rabbit anti-RANKL antibody (antibody, V domains shown) VH: QEQLQESGGGLITPGGTLTLTCTASGFSFNRNALSWVRQAPGKGLEWIGYIYSGGSPYYANWAKGRFNVSRTSTTVDLRMTSLTTEDTATYFCARHVSGGGWYLDIWGPGTLVTVSL VL: DMIQTPASVEVAVGGTVTINCQASQNIGSNLAWYQQKPGQPPKLLIYGTSTLASGVSSRFKGSGFGTQFTFTISDVECTDAATYYCQQAYSISNVDNAFGGGTEVVVK |  |  |  |  | EC50 [9]: 0.13 µg/mL; IC50 [10]: 0.0762 µg/mL |
| clone 420 rabbit anti-RANKL antibody (antibody, V domains shown) VH: QEQLKESGGGLVTPGGILTLTCTASGFSLRSNAMSWVRQAPGKGLEWIGYIYPGGAPHYASWAKGRFTISRNSTTVDLKMTSLTTEDTATYFCARHVSGGGWYLDIWGPGTLVTVSL VL: DMIQTPASVEVGVGGTVTINCQASQNIGSNLAWYQQKPGQPPKFLIYGASTLASGVSSRFKGSGSGTRFTFTISDVECTDAATYYCQQAYSVGNVDNAFGGGTEVVVK |  |  | 0.0754 µg/mL | 0.215 µg/mL |  |
| clone 416 rabbit anti-RANKL antibody (antibody, V domains shown) VH: QSVKESGGGLVTPGGTLTLTCTVSGFSLSRNAMSWVRQTPGKGLEWIGYIYSGSSPYYANWAKGRFTISRTSTTVDLKMTSLTTEDTATYFCARHVSDGGWYLDIWGPGTLVAVSL VL: DMIQTPASVEVVVGGTVTFNCQASQNIGSNLAWYQQKPGQPPKLLIYSASTLASGVPSRFKGSGSGTQFTFTISDVECTDAATYYCQQAYSISNVDNAFGGGTEVVVK |  |  | 0.138 µg/mL | 0.203 µg/mL |  |
| clone EBI-51-4 rabbit anti-RANKL antibody (antibody, V domains shown) VH: QSVEESGGRLVKPGESLTLTCTASGFSLSSDVISWVRQAPGKGLEWIGYGWSGGPTYYANWAKGRFTISKTSSTTVDLKITSPTTEDTATYFCARGFNPFDPWGPGTLVTVSS VL: DMTQTPASVSEPVGGTVTIKCQASQNIGSNLAWYQQKPGQRPKLLIYRASTLASGVSSRFKGSGSGTQFTLTISDLECADAATYYCQQGYSAGNVDNSFGGGTEVVVK | 0.0388 µg/mL | 0.078 µg/mL |  |  |  |
| clone 411 rabbit anti-RANKL antibody (antibody, V domains shown) VH: QSVEESGGRLVTPGTPLTLTCTVSGFSLSSGVVSWVRQAPGKGLEWIGYAWSGGPTYYANWAKGRFTISKSSTTVDLKITSPTTADTATYFCARGYNGMDPWGPGTLVTVSS VL: DMTQTPASVEVAVGGTVTIKCQASQNIGSNLAWYQQKPGQPPKLLIYKASTLASGVPSRFRGSGSGTEFTLAISDLECADAATYYCQQGYTTKDVVNPFGGGTEVVVK |  |  | 0.0771 µg/mL | 0.108 µg/mL |  |
| clone 383 rabbit anti-RANKL antibody (antibody, V domains shown) VH: QSLEESGGDLVKPGASLTLTCTASGFSFSRYVCWVRQAPGKGLEWIGCIAAGSSGYTYYASWAKGRLTISKTSSTTLTLQMTSLTVADTATYFCARSGDSYVGYFNLWGPGTLVTVSS VL: IVMTQTPASVEAAVGGTVTIKCQASQNIYNYLAWYQQQPGQPPKLLIYSASNLASGVSSRFKGSGSGTEFTLTISDLECGDAATYYCQSYYDSSRISYGSAFGGGTEVVVK |  |  |  |  | EC50 [2]: 0.15 µg/mL; IC50 [3]: 0.0621 µg/mL; IC50 in a RAW cell assay (TRAP activity, OD 405 nM) [4]: 0.002 µg/mL |
| clone 191 rabbit anti-RANKL antibody (antibody, V domains shown) VH: QSVEESGGRLVTPGTPLTLTCTVSGFSLYTNLINWVRQAPGKGLEWIGYINYGASAYYANWAKGRFTISQTSSTTVDLKMTSLTIEDTATYFCARGYGNDWDRLDLWGQGTLVTVSS VL: IVMTQTPSPVSGAVGGTVTINCQASQSIGSNLAWYQQKPGQPPKLLIYSASILASGAPSRVSGSGYGTEFTLTISGVQCADAATYYCQQGYTTNADNIFGGGTEVVVE |  |  |  |  | EC50 [9]: 0.174 µg/mL; IC50 [10]: 0.0823 µg/mL |
